Measured values as given in the supplement of paper PMC10126150.
± gives the standard deviation of the averaged measurements.

test system: ATP; assay: switch fluorescence ratio, 500 uM ATP over buffer (Cy3 cluster intensity, sum of 5 cycles each) (fold (ratio)); higher = stronger signal-on switching upon ATP binding; sequences stand for … in TCGTCGGCAGCGTCAGATGTGTATAAGAGACAGTTTTTTTTTTTTTTTTTTTTTTTTT…TC; conditions: aptamer strand: ATP DNA aptamer (quencher-CACCTGGGGGAGTATTGCGGAGGAAGG + anchor), 100 nM annealed; ATP concentration: 500 uM
How it was run: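 Clusters with intensities outside 100-1000 RFU were excluded. The remaining Cy3-labelled switching-strand clusters on a modified Illumina MiSeq flow-cell had been annealed to 100 nM quencher-labelled ATP aptamer and imaged in selection buffer, then after 15 min with 500 uM ATP at 22 °C, for five cycles separated by NaOH stripping and re-annealing. The fluorescence ratio, averaged per switch-domain sequence, is each cluster's summed target-cycle Cy3 intensity over its summed buffer-cycle Cy3 intensity.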
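Also: ATP exposure 15 min at 22 °C before imaging.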

| Sequence | switch fluorescence ratio |
| --- | --- |
| ATTGTTATTG | 0.967 ± 0.065 |
| ATTGTTCTGG | 1.004 ± 0.0021 |
| ATTGTTGAAT | 0.993 ± 0.015 |
| ATTGTTGGAT | 1.013 ± 0.0067 |
| ATTGTTTTAC | 1.02 ± 0.014 |
| ATTGTTTTAG | 1.01 ± 0.025 |
| ATTGTTTTCG | 1 ± 0.029 |
| ATTTAAAATG | 0.994 ± 0.033 |
| ATTTAAGGTA | 1.01 ± 0.024 |
| ATTTAATATG | 0.97 ± 0.011 |
| ATTTAATCCT | 1.09 ± 0.038 |
| ATTTAATCGC | 1.01 ± 0.011 |
| ATTTACAAGT | 1.003 ± 0.0063 |
| ATTTACAGGT | 1.033 ± 0.0098 |
| ATTTACATTA | 1.03 ± 0.021 |
| ATTTACCGGT | 1.03 ± 0.022 |
| ATTTACGGCA | 1.11 ± 0.021 |
| ATTTACGGTG | 1 ± 0.022 |
| ATTTATATCT | 1 ± 0.015 |
| ATTTCACTGA | 1.03 ± 0.011 |
| ATTTCACTTT | 0.9915 ± 0.0085 |
| ATTTCAGAGG | 1.02 ± 0.017 |
| ATTTCAGCGA | 1.09 ± 0.014 |
| ATTTCAGGGG | 1.09 ± 0.061 |
| ATTTCAGGGT | 1 ± 0.015 |

| Sequence | switch fluorescence ratio |
| --- | --- |
| ATTTCGAATG | 0.9827 ± 0.0076 |
| ATTTCGATAT | 0.979 ± 0.038 |
| ATTTCGATGT | 1.03 ± 0.031 |
| ATTTCGGAGA | 0.971 ± 0.011 |
| ATTTCGGGAG | 1.01 ± 0.052 |
| ATTTCGGTCA | 0.9919 ± 0.0066 |
| ATTTCGTGCG | 1.01 ± 0.061 |
| ATTTCGTTGT | 1 ± 0.07 |
| ATTTCTAGAT | 1.024 ± 0.0093 |
| ATTTCTCTTG | 0.998 ± 0.025 |
| ATTTGAAGTA | 1.01 ± 0.04 |
| ATTTGACCAT | 1.13 ± 0.18 |
| ATTTGACTTC | 1.12 ± 0.19 |
| ATTTGAGAAA | 1.01 ± 0.025 |
| ATTTGAGGGG | 0.998 ± 0.035 |
| ATTTGAGGTA | 1.01 ± 0.012 |
| ATTTGAGGTG | 1.03 ± 0.038 |
| ATTTGATCTG | 0.985 ± 0.014 |
| ATTTGATTCT | 0.984 ± 0.023 |
| ATTTGATTGT | 0.98 ± 0.034 |
| ATTTGCAAAG | 1.12 ± 0.21 |
| ATTTGCATGG | 1.09 ± 0.2 |
| ATTTGCTCGG | 1.036 ± 0.0097 |
| ATTTGGCGT | 1.01 ± 0.018 |
| ATTTGTATTT | 0.992 ± 0.026 |

| Sequence | switch fluorescence ratio |
| --- | --- |
| ATTTGTCTGG | 0.9643 ± 0.0028 |
| ATTTGTGAAC | 1.02 ± 0.024 |
| ATTTGTGAGG | 0.9782 ± 0.0093 |
| ATTTGTTCTG | 0.962 ± 0.038 |
| ATTTGTTGCT | 0.981 ± 0.025 |
| ATTTGTTGT | 0.973 ± 0.052 |
| ATTTGTTGTG | 1.01 ± 0.041 |
| ATTTTAATAA | 0.99 ± 0.017 |
| ATTTTAATCG | 0.985 ± 0.03 |
| ATTTTAATGA | 0.934 ± 0.028 |
| ATTTTACCTC | 1.05 ± 0.13 |
| ATTTTAGCTC | 0.984 ± 0.015 |
| ATTTTATACA | 0.996 ± 0.03 |
| ATTTTATAGT | 1 ± 0.055 |
| ATTTTATGGG | 0.999 ± 0.019 |
| ATTTTATTAT | 1.01 ± 0.024 |
| ATTTTATTCT | 1.003 ± 0.0076 |
| ATTTTCATAT | 0.98 ± 0.021 |
| ATTTTCATTA | 0.996 ± 0.0096 |
| ATTTTCGCAT | 1.19 ± 0.051 |
| ATTTTCTATG | 0.978 ± 0.029 |
| ATTTTCTTAG | 0.999 ± 0.018 |
| ATTTTGAGGT | 0.987 ± 0.018 |
| ATTTTGATTT | 1 ± 0.028 |
| ATTTTGCTCG | 0.999 ± 0.021 |

| Sequence | switch fluorescence ratio |
| --- | --- |
| ATTTTGCTGG | 0.999 ± 0.011 |
| ATTTTGGCGT | 0.982 ± 0.037 |
| ATTTTGGGTC | 0.991 ± 0.047 |
| ATTTTGGGTG | 1.08 ± 0.049 |
| ATTTTGTTCG | 1.04 ± 0.011 |
| ATTTTGTTTC | 0.987 ± 0.032 |
| ATTTTGTTTT | 1.01 ± 0.061 |
| ATTTTTACAG | 1.03 ± 0.032 |
| ATTTTTACGG | 1.01 ± 0.013 |
| ATTTTTACTT | 0.974 ± 0.032 |
| ATTTTTCAGC | 1.003 ± 0.0042 |
| ATTTTTGACA | 1.001 ± 0.0037 |
| ATTTTTGATG | 1.02 ± 0.073 |
| ATTTTTGGCT | 0.995 ± 0.042 |
| ATTTTTGTCA | 0.985 ± 0.015 |
| ATTTTTTACA | 1.082 ± 0.0069 |
| ATTTTTTGAC | 0.9915 ± 0.0011 |
| ATTTTTTGGT | 0.9981 ± 0.006 |
| ATTTTTTGTT | 0.976 ± 0.047 |
| ATTTTTTTAG | 0.988 ± 0.02 |
| CAAAAAAAGA | 0.986 ± 0.067 |
| CAAAAAACCT | 1.55 ± 0.55 |
| CAAAACGTAG | 1.01 ± 0.025 |
| CAAAAGGGAA | 1.02 ± 0.024 |
| CAAAAGGGCC | 1.021 ± 0.0042 |

| Sequence | switch fluorescence ratio |
| --- | --- |
| CAAAATGCTT | 0.99 ± 0.047 |
| CAAACCAGGA | 1.09 ± 0.07 |
| CAAAGAAAAT | 0.9943 ± 0.0062 |
| CAAAGAGGCG | 1.02 ± 0.057 |
| CAAAGGGGTG | 1.03 ± 0.044 |
| CAAAGGTACA | 1.008 ± 0.0063 |
| CAAAGGTTGC | 1 ± 0.013 |
| CAAAGTTGGA | 1.01 ± 0.017 |
| CAAATAACAT | 1.01 ± 0.015 |
| CAAATAAGTA | 1.01 ± 0.033 |
| CAAATAGTGG | 0.943 ± 0.034 |
| CAAATATACG | 1.23 ± 0.23 |
| CAAATCTTGT | 1.03 ± 0.027 |
| CAAATGGCTG | 1.04 ± 0.074 |
| CAAATGGTTA | 0.974 ± 0.01 |
| CAAATGTGCT | 0.986 ± 0.015 |
| CAAATTCGAG | 0.984 ± 0.0033 |
| CAAATTCGTC | 1.07 ± 0.015 |
| CAAATTGGTG | 1.083 ± 0.0018 |
| CAAATTTCAT | 0.985 ± 0.023 |
| CAACAAGGCA | 1.02 ± 0.0071 |
| CAACATCTAT | 1.02 ± 0.053 |
| CAACGAAGTG | 1 ± 0.069 |
| CAACGCGTTG | 1 ± 0.013 |
| CAACGGACTA | 1.246 ± 0.0095 |

| Sequence | switch fluorescence ratio |
| --- | --- |
| CAACGGTTGG | 1.01 ± 0.045 |
| CAACGTGGGG | 0.99 ± 0.017 |
| CAACGTTTTT | 1.01 ± 0.037 |
| CAACTAAAAA | 1.01 ± 0.032 |
| CAACTAAATT | 1.01 ± 0.025 |
| CAACTCTCTG | 1 ± 0.038 |
| CAACTGCGTG | 0.989 ± 0.013 |
| CAACTTCCCC | 1.22 ± 0.1 |
| CAAGAAAGTT | 0.964 ± 0.034 |
| CAAGAACGGT | 0.969 ± 0.0077 |
| CAAGACTTGC | 1.03 ± 0.045 |
| CAAGAGCGGT | 1.02 ± 0.047 |
| CAAGAGGGGC | 1 ± 0.026 |
| CAAGATTTAT | 0.99 ± 0.023 |
| CAAGGAAGAT | 1.02 ± 0.014 |
| CAAGGACGAG | 1.02 ± 0.041 |
| CAAGGATAGG | 0.9984 ± 0.0084 |
| CAAGGCAAGG | 1.07 ± 0.018 |
| CAAGGCATGG | 1.05 ± 0.033 |
| CAAGGCATTG | 0.978 ± 0.02 |
| CAAGGGATTG | 0.992 ± 0.0058 |
| CAAGGGCCCA | 0.994 ± 0.014 |
| CAAGGGGCAA | 0.964 ± 0.032 |
| CAAGGGGTCC | 1.01 ± 0.032 |
| CAAGGGTATT | 1.01 ± 0.017 |

| Sequence | switch fluorescence ratio |
| --- | --- |
| CAAGGGTGGC | 1.003 ± 0.0061 |
| CAAGGTAAGT | 1.03 ± 0.056 |
| CAAGGTACGA | 1.02 ± 0.043 |
| CAAGGTCAGC | 0.9798 ± 0.0071 |
| CAAGGTTTTT | 1.01 ± 0.021 |
| CAAGTCAAAG | 0.996 ± 0.039 |
| CAAGTCTGG | 0.985 ± 0.032 |
| CAAGTGTTCG | 0.996 ± 0.03 |
| CAAGTTATAC | 1.38 ± 0.15 |
| CAAGTTGAAA | 0.9693 ± 0.0034 |
| CAAGTTTTGT | 1.01 ± 0.012 |
| CAATAAAACA | 0.972 ± 0.013 |
| CAATAATTTG | 0.99184 ± 0.00043 |
| CAATAGGATG | 1.012 ± 0.0067 |
| CAATAGGCGC | 1.01 ± 0.021 |
| CAATAGGGGG | 1 ± 0.027 |
| CAATATAGGT | 0.967 ± 0.018 |
| CAATATATAC | 1.13 ± 0.043 |
| CAATATGCAG | 0.962 ± 0.012 |
| CAATATGTAT | 0.997 ± 0.063 |
| CAATATGTGC | 1.009 ± 0.004 |
| CAATCCTGGG | 0.989 ± 0.034 |
| CAATCTACGC | 1.11 ± 0.038 |
| CAATGAGTCT | 1.03 ± 0.035 |
| CAATGCACGG | 1.07 ± 0.0098 |

| Sequence | switch fluorescence ratio |
| --- | --- |
| CAATGCAGTG | 1 ± 0.019 |
| CAATGCGTTT | 0.998 ± 0.038 |
| CAATGGGCGT | 1.0067 ± 0.00057 |
| CAATGGTTCT | 0.993 ± 0.036 |
| CAATGTTATC | 1.01 ± 0.017 |
| CAATTCAGTT | 0.991 ± 0.024 |
| CAATTCTGTA | 0.997 ± 0.028 |
| CAATTGCTGG | 0.949 ± 0.035 |
| CAATTTAAGG | 0.997 ± 0.041 |
| CAATTTAGTC | 0.983 ± 0.022 |
| CAATTTCCCG | 1.01 ± 0.02 |
| CAATTTGCTG | 0.94 ± 0.026 |
| CAATTTTCTT | 1.02 ± 0.025 |
| CAATTTTGGT | 1.01 ± 0.031 |
| CAATTTTTAA | 0.9798 ± 0.0088 |
| CAATTTTTCG | 1.02 ± 0.048 |
| CAATTTTTTT | 1.08 ± 0.12 |
| CACAAAAGCG | 1.01 ± 0.042 |
| CACAAAAGTG | 1.02 ± 0.02 |
| CACAAACAGA | 1.12 ± 0.036 |
| CACAACTTAA | 0.9867 ± 0.0023 |
| CACAATGCAG | 1 ± 0.033 |
| CACACAAATT | 1.18 ± 0.15 |
| CACACAGTCG | 1.09 ± 0.015 |
| CACAGGGGAC | 1.11 ± 0.05 |
